Read-outs that look alike come from different tables or passages of the source. Each block holds one binder with its values, some of them ahead of it.
Columns and labels:
[1] = target: T1, human CD276 protein (human, UniProt Q5ZPR3 29-534); experiment: cell-based or functional assay
T1 sequence (looked up): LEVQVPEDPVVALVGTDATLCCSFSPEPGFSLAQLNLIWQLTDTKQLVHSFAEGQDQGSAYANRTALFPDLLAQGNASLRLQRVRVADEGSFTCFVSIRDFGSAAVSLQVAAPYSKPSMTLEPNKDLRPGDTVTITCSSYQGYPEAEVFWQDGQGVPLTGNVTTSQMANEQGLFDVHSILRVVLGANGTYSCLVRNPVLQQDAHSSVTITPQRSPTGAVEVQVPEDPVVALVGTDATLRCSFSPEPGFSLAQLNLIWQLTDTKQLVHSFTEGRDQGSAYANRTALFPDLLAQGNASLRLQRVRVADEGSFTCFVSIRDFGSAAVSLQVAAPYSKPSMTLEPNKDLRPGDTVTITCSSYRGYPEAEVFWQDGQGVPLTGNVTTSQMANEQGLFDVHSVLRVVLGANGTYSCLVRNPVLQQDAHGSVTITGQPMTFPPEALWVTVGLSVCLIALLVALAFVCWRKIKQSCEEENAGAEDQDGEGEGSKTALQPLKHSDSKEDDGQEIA

[2] = target: T1, human CD276 protein; experiment: FACS on SKOV3 cells
In short: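 Human IgG1 chimeric antibodies were tested for binding to trypsin-detached SKOV3 ovarian cancer cells by flow cytometry, with cells washed in FACS buffer and kept in the dark before acquisition. Titration read-out was MFI plotted against antibody concentration (nM).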

[3] = target: T1, human CD276 protein; experiment: cell-based or functional assay; remark: listed apart in the source
[4] = target: T1, human CD276 protein; experiment: FACS titration on SKOV3 cells (MFI against Conc. (nM)); unit taken from the concentration axis
[5] = target: T1, human CD276 protein; experiment: as above; remark: listed apart in the source
From the text: Sequences of 31 mouse antibodies from Table 5 were selected to generate and produce human IgG1 chimeric antibodies. The binding affinity of these antibodies and bench mark antibody, Enoblituzumab (see U.S. Pat. No. 8,802,091, MGA271, specifically with a construct designated as hBRCA84D-2) and MGC018 (an antibody-drug-conjugate, in which the mAb MGA017 (human IgG1) is conjugated via a cleavable linker to the prodrug seco-DUocarmycin hydroxyBenzamide Azaindole (DUBA), an alkylating agent that can damage DNA in both dividing and non-dividing cells, thereby causing cell death) with human patient derived ovarian cancer cell line, SKOV3, was determined by FACS analysis.
1. Digested cells using Trypsin (1×); Centrifuged the harvested cells at 300 g for 3 min and discarding the supernatant. […] 2. Washed the cells 2 times with FACS buffer by centrifuging at 300 g for 3 min and discarding the supernatant. [0445] 3. […] Kept the cells in dark for FACS analysis.

[6] = target: T2, HUMAN B7H3 (Biacore analyte) (human, UniProt Q5ZPR3 29-461, limits assumed); experiment: SPR, Biacore 8K, antibody captured, B7H3 as analyte, 1:1 binding
T2 construct: also called hB7H3
T2 sequence (looked up): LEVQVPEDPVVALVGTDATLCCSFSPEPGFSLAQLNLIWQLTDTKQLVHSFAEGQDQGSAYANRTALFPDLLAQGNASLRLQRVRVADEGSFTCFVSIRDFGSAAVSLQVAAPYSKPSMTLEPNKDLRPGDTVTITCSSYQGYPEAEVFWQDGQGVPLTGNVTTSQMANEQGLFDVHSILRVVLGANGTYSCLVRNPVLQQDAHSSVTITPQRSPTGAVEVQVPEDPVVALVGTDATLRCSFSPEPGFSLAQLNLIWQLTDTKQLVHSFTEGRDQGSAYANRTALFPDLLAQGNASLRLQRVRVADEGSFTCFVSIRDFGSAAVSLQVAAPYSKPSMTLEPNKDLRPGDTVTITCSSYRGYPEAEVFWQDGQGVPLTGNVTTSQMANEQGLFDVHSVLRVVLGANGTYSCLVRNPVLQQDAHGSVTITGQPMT

[7] = target: T2, HUMAN B7H3 (Biacore analyte); experiment: as above; remark: listed apart in the source
[8] = target: T1, human CD276 protein; experiment: cell-based or functional assay; remark: listed apart in the source

EC50 of antibody induced CDC effect [1]: 3.21 nM | EC50 [2]: 0.282 µg/mL | MFI (Max) [2]: 4270 | EC50 of antibody induced ADCC effect on SKOV3 [3]: 0.0327 µg/mL | EC50 [4]: 7.98 nM
B1: 30-C7-C11-D4 (human IgG1 chimeric antibody) (antibody, V domains shown)
VH: EVQLVESGPGLVKPSQSLSLTCTVTGYSITSDYAWNWIRQFPGNKLEWMGYISHSGSTSYNPSLKSRISITRDTSKNQFFLQLNSVTTEDTATYYCARSLGRRWYFDVWGAGTTVTVSS
VL: DIVMTQSPSSLAMSVGQKVTLSCKSSQSLLNSSTQKNYLAWYQQKPGQSPKLLVYFASTRDSGVPDRFIGSGSGTEFTLTISSVQAEDLADYFCQQHYIIPFTFGAGTKLEIK
notes: human IgG1 chimeric antibody of the mouse clone
Top cytotoxicity (%), CDC [1]: 60.3%

EC50 [5]: 1.92 nM
B2: hVH2-hVL1-10 (antibody, V domains shown)
VH: EVQLVESGGGLVQPGGSLRLSCATSGFTLSDYYMSWVRQAPGKGLEWVSFMRNKANGYTTEYSASVRGRFTISRDTSKSTIYLQMNSLRAEDTAVYYCVRDRDGRPFAYWGQGTLVTVSS
VL: DIVMTQSPDSLAVSLGERATINCKSSQSLLNSINQKNFLTWYQQKPGQPPKLLIYWASTRESGVPDRFSGSGSGTDFTLTISSLQAEDLAVYYCQNDYTYPLTFGQGTKLEIK

EC50 [5]: 2.75 nM
B3: hVH3-hVL3-10 (antibody, V domains shown)
VH: EVQLVESGGGLVQPGGSLRLSCATSGFTLSDYYMSWVRQAPGKGLEWVGFMRNKANGYTTEYSASVRGRFTISRDTSKSSIYLQMNSLKTEDTAVYYCVRDRDGRPFAYWGQGTLVTVSS
VL: DIQMTQSPSSLSASVGDRVTITCKSSQSLLNSINQKNFLTWYQQKPGKAPKLLIYWASTRESGVPSRFSGSGSGTDFTLTISSLQPEDLATYYCQNDYTYPLTFGQGTKLEIK

EC50 [5]: 4.43 nM
B4: hVH4-hVL2-10 (antibody, V domains shown)
VH: EVQLVESGGGLIQPGGSLRLSCATSGFTLSDYYMSWVRQPPGKGLEWVSFMRNKANGYTTEYSASVRGRFTISRDTSKSTIYLQMNSLRAEDTAVYYCVRDRDGRPFAYWGQGTLVTVSS
VL: DIVMTQSPLSLPVTPGEPASISCKSSQSLLNSINQKNFLTWYLQKPGQSPQLLIYWASTRESGVPDRFSGSGSGTDFTLKISRVEAEDLGVYYCQNDYTYPLTFGQGTKLEIK

EC50 [5]: 1.9 nM
B5: hVH4-hVL1-10 (antibody, V domains shown)
VH: EVQLVESGGGLIQPGGSLRLSCATSGFTLSDYYMSWVRQPPGKGLEWVSFMRNKANGYTTEYSASVRGRFTISRDTSKSTIYLQMNSLRAEDTAVYYCVRDRDGRPFAYWGQGTLVTVSS
VL: DIVMTQSPDSLAVSLGERATINCKSSQSLLNSINQKNFLTWYQQKPGQPPKLLIYWASTRESGVPDRFSGSGSGTDFTLTISSLQAEDLAVYYCQNDYTYPLTFGQGTKLEIK

EC50 [5]: 2.63 nM
B6: hVH5-hVL1-10 (antibody, V domains shown)
VH: EVQLVESGGGLVQPGRSLRLSCTTSGFTLSDYYMSWVRQAPGKGLEWVGFMRNKANGYTTEYSASVRGRFTISRDTSKSIIYLQMNSLKTEDTAVYYCVRDRDGRPFAYWGQGTLVTVSS
VL: DIVMTQSPDSLAVSLGERATINCKSSQSLLNSINQKNFLTWYQQKPGQPPKLLIYWASTRESGVPDRFSGSGSGTDFTLTISSLQAEDLAVYYCQNDYTYPLTFGQGTKLEIK

EC50 [5]: 2.98 nM
B7: hVH5-hVL3-10 (antibody, V domains shown)
VH: EVQLVESGGGLVQPGRSLRLSCTTSGFTLSDYYMSWVRQAPGKGLEWVGFMRNKANGYTTEYSASVRGRFTISRDTSKSIIYLQMNSLKTEDTAVYYCVRDRDGRPFAYWGQGTLVTVSS
VL: DIQMTQSPSSLSASVGDRVTITCKSSQSLLNSINQKNFLTWYQQKPGKAPKLLIYWASTRESGVPSRFSGSGSGTDFTLTISSLQPEDLATYYCQNDYTYPLTFGQGTKLEIK

EC50 of antibody induced CDC effect [1]: 2.74 nM | EC50 [2]: 0.822 µg/mL | MFI (Max) [2]: 5640 | Kd [6]: 0.785 nM | koff [6]: 0.000198 s⁻¹ | kon [6]: 252000 M⁻¹ s⁻¹ | Kd [7]: 0.415 nM | koff [7]: 8.97e-05 s⁻¹ | kon [7]: 216000 M⁻¹ s⁻¹ | EC50 of antibody induced ADCC effect on SKOV3 [3]: 0.237 µg/mL | EC50 [5]: 2.33 nM
B8: 10-G6-C4-B2 (human IgG1 chimeric antibody) (antibody, V domains shown)
VH: EVQLVESGGGLVQPGGSLRLSCATSGFTLSDYYMSWVRQPPGKAPEWLGFMRNKANGYTTEYSASVRGRFTISRDTSQSIIYLQMNTLRAEDGATYYCVRDRDGRPFAYWGQGTLVTVSA
VL: DIVMTQSPSSLTVTAGEKVTMSCKSSQSLLNSINQKNFLTWYQQKPGQPPKLLIYWASTRESGVPDRFTGSGSGTDFTLTISSVQAEDLAIYYCQNDYTYPLTFGTGTKLELK
notes: as for B1
Top cytotoxicity (%), CDC [1]: 93.5% | IC50 of indirect ADC cytotoxicity on SKOV3 [8]: 0.008 nM

EC50 [5]: 2.76 nM
B9: mVH5-mVL4-10 (antibody, V domains shown)
VH: EVQLVESGGGLVQPGGSLRLSCATSGFTLSDYYMSWVRQPPGKAPEWLGFMRNKANAYTTEYSASVRGRFTISRDTSQSIIYLQMNTLRAEDGATYYCVRDREGRPFAYWGQGTLVTVSA
VL: DIVMTQSPSSLTVTAGEKVTMSCKSSQSLLNAINQKNFLTWYQQKPGQPPKLLIYWASTRESGVPDRFTGSGSGTDFTLTISSVQAEDLAIYYCQNDYTYPLTFGTGTKLELK
